One protein from publication PMC5793882 (Cell, 2018) can be followed below.

The data set deals with the molecule itself. Kind of data set: negative-stain electron microscopy.

B1: Drosophila Arc1 protein (natural protein, UniProt Q7K1U0 1-254, looked up)
chain: MAQLTQMTNEQLRELIEAVRAAAVGAAGSAAAAGGADASRGKGNFSACTHSFGGTRDHDVVEEFIGNIETYKDVEGISDENALKGISLLFYGMASTWWQGVRKEATTWKEAIALIREHFSPTKPAYQIYMEFFQNKQDDHDPIDTFVIQKRALLAQLPSGRHDEETELDLLFGLLNIKYRKHISRHSVHTFKDLLEQGRIIEHNNQEDEEQLATAKNTRGSKRTTRCTYCSFRGHTFDNCRKRQKDRQEEQHEE
For B1, the binding result is reported as “binds”.
